In US8465945B2, “Method for production and use of mite group 1 proteins” (Merck Patent GmbH, priority 1999, dated 2013):

Assays:
IgE = conditions: literature reports (Chua et al 1992; Shoji et al 1996, 1997); cited from earlier work
[1] = tested on: IgE from mite-allergic dog sera; assay: ELISA, binding of IgE from dog sera to coated Der f 1 proteins or mite extracts, detected with FcεR1α-biotin
Protocol: Native or recombinant Der f 1 proteins in 100 μl CBC buffer (50 mM sodium carbonate, pH 9.6) were coated onto wells (100 ng per well) of Immulon II microtiter plates (available from Dynex Technologies, Chantilly, Va.) by incubation at 4° C., covered, overnight. Excess fluid was removed and wells were blocked with 200 μl Assay Buffer (4% fetal calf serum (available from Summit Laboratories, Fort Collins, Colo.) in phosphate buffered saline (PBS, recipe in Sambrook, ibid.), plus 0.05% Tween-20 (available from Sigma, St. Louis, Mo.)) for one hour at room temperature. Plates were then washed for 4 cycles on an automatic plate washer (Ultrawash, available from Dynatech Laboratories) using PBS with 0.05% Tween-20. […] Control wells were treated identically except that no serum was added. Plates were then washed as described above. Biotinylated human IgE receptor alpha chain (FcεR1α-biotin) (100 μl of 1.3 ng/ml) prepared as described in U.S. Pat. No. 5,945,294, ibid., was added and incubated for one hour at room temperature. After this incubation, plates were washed as described above. Streptavidin-horseradish peroxidase conjugate (0.5 mg/ml, available from KPL Labs, Gaithersburg, Md.) was added at a 1:5000 dilution in Assay Buffer for one hour at room temperature, after which plates were washed as described above. TMB Peroxidase substrate system, 2 part (available from KPL Labs, #0-76-00), added at 100 μl per well, was used according to the manufacturer's directions. The color reaction was allowed to proceed until good color development was reached (about 10-15 min); then the reaction was stopped with 100 μl per well of 1 M phosphoric acid. Bound IgE was determined by measuring absorbance (Optical Density, or OD) at 450 nm (nanometers) using an ELISA plate reader (such as Spectramax”, Molecular Devices, Sunnyvale, Calif.). Background OD readings in the control wells were subtracted from all numbers. Results are reported in Tables 1, 2 and 3 as OD multiplied by 1000. OD numbers greater than 100 are considered to be positive for a reaction with IgE. P. pastoris-expressed proteins are denoted in the Tables as Pichia expressed proteins.

[2] = tested on: IgE from mite-allergic or normal human sera; assay: ELISA, binding of IgE from human sera to coated Der f 1 proteins or mite extracts, detected with FcεR1α-biotin
[3] = tested on: IgE from pooled mite-allergic human sera; assay: Monoclonal Capture ELISA (Example 8B, Table 7); assay type: binding
Protocol: Assays were carried out as follows. A microtiter plate as described in Example 5 was coated overnight at 4° C. with 100 ng/well of anti-Der f 1 protein monoclonal antibody 6A8, denoted herein as anti-Der f 1 MAb 6A8, provided by Dr. Martin Chapman. The plate was washed in the manner described above. The following proteins were then added to wells, having been diluted in Assay Buffer in a 2-fold dilution series, from 0.75 to 50 ng/well: Heska native Derf1, P. pastoris-expressed PDerf1303b, and E. coli-expressed PDerf1303c. After incubation for 1 hour at room temperature, plates were washed as described in Example 5. Then 100 μl per well of a 1:1000 dilution in Assay Buffer of biotinylated anti-Der f 1 monoclonal antibody 4C1, also denoted anti-Der f 1 MAb 4C1, provided by Dr. Martin Chapman, was added for 1 hour at room temperature. Plates were washed, streptavidin-HRP conjugate was added, and plates were developed as described in Example 5.
B. The Der f 1 proteins described in Example 8B were reacted as described in Example 6 with a pool of serum samples collected from 16 mite-allergic human patients.

B1: Der f 1 pro-form: Recombinant Der f 1 pro-form from baculovirus expression system in insect cells (Shoji et al) (protein, listed as Dermatophagoides farinae)
chain: RPASIKTFEEFKKAFNKNYATVEEEEVARKNFLESLKYVEANKGAINHLSDLSLDEFKNRYLMSAEAFEQLKTQFDLNAETSACRINSVNVPSELDLRSLRTVTPIRMQGGCGSCWAFSGVAATESAYLAYRNTSLDLSEQELVDCASQHGCHGDTIPRGIEYIQQNGVVEERSYPYVAREQRCRRPNSQHYGISNYCQIYPPDVKQIREALTQTHTAIAVIIGIKDLRAFQHYDGRTIIQHDNGYQPNYHAVNIVGYGSTQGDDYWIVRNSWDTTWGDSGYGYFQAGNNLMMIEQYPYVVIM
IgE reactivity relative to the native protein (IgE): 20%

B2: Chapman native Derf1: Native purified Der f 1 protein, purified in the laboratory of Martin Chapman (protein)
chain: TSACRINSVNVPSELDLRSLRTVTPIRMQGGCGSCWAFSGVAATESAYLAYRNTSLDLSEQELVDCASQHGCHGDTIPRGIEYIQQNGVVEERSYPYVAREQRCRRPNSQHYGISNYCQIYPPDVKQIREALTQTHTAIAVIIGIKDLRAFQHYDGRTIIQHDNGYQPNYHAVNIVGYGSTQGDDYWIVRNSWDTTWGDSGYGYFQAGNNLMMIEQYPYVVIM
OD, bound IgE ([1]; Assay Number 1, serum dog pool): 341 OD multiplied by 1000
OD, bound IgE ([1]; Assay Number 1, serum dog-1): 6 OD multiplied by 1000
OD, bound IgE ([1]; Assay Number 1, serum dog-2): 1408 OD multiplied by 1000
OD, bound IgE ([1]; Assay Number 1, serum dog-3): 3125 OD multiplied by 1000
OD, bound IgE ([1]; Assay Number 2, dog sera pool A 146): 220 OD multiplied by 1000
OD, bound IgE ([1]; Assay Number 2, dog sera pool KS338): 19 OD multiplied by 1000
OD, bound IgE ([2]; Assay Number 1, serum human 1916): 17 OD multiplied by 1000
OD, bound IgE ([2]; Assay Number 1, serum human3848): 2336 OD multiplied by 1000
OD, bound IgE ([2]; Assay Number 1, serum human 3958): 1261 OD multiplied by 1000
OD, bound IgE ([2]; Assay Number 1, serum human 3960): 1024 OD multiplied by 1000
OD, bound IgE ([2]; Assay Number 1, serum human 3961): 326 OD multiplied by 1000
OD, bound IgE ([2]; Assay Number 1, serum human 3987): 1216 OD multiplied by 1000
OD, bound IgE ([2]; Assay Number 1, serum human 4289): 287 OD multiplied by 1000
OD, bound IgE ([2]; Assay Number 1, serum human 4467): 615 OD multiplied by 1000
OD, bound IgE ([2]; Assay Number 1, serum human 5207): 2669 OD multiplied by 1000
OD, bound IgE ([2]; Assay Number 1, serum human pool): 1531 OD multiplied by 1000
OD, bound IgE ([2]; Assay Number 2, serum Heska human B): 0 OD multiplied by 1000
OD, bound IgE ([2]; Assay Number 2, serum Heska human C): 0 OD multiplied by 1000
OD, bound IgE ([2]; Assay Number 2, serum Heska human D): 0 OD multiplied by 1000
OD, bound IgE ([2]; Assay Number 2, serum Heska human E): 2 OD multiplied by 1000
OD, bound IgE ([2]; Assay Number 2, serum Heska human F): 0 OD multiplied by 1000
OD, bound IgE ([2]; Assay Number 2, serum Heska human G): 0 OD multiplied by 1000
OD, bound IgE ([2]; Assay Number 2, serum Heska human H): 0 OD multiplied by 1000
OD, bound IgE ([2]; Assay Number 2, serum Heska human I): 0 OD multiplied by 1000
OD, bound IgE ([2]; Assay Number 2, serum Heska human J): 0 OD multiplied by 1000
OD, bound IgE ([2]; Assay Number 2, serum Heska human K): 0 OD multiplied by 1000
OD, bound IgE ([2]; Assay Number 2, serum Heska human L): 0 OD multiplied by 1000
OD, bound IgE ([2]; Assay Number 2, serum Heska human M): 0 OD multiplied by 1000
OD, bound IgE ([2]; Assay Number 2, serum Heska human N): 373 OD multiplied by 1000
OD, bound IgE ([2]; Assay Number 2, serum Heska human O): 0 OD multiplied by 1000
OD, bound IgE ([2]; Assay Number 2, serum Heska human P): 0 OD multiplied by 1000
OD, bound IgE ([2]; Assay Number 2, serum Heska human Q): 0 OD multiplied by 1000
OD, bound IgE ([2]; Assay Number 2, serum Heska human R): 0 OD multiplied by 1000
OD, bound IgE ([2]; Assay Number 2, serum human 1916): 8 OD multiplied by 1000
OD, bound IgE ([2]; Assay Number 2, serum human 3848): 1726 OD multiplied by 1000
OD, bound IgE ([2]; Assay Number 2, serum human 3958): 822 OD multiplied by 1000
OD, bound IgE ([2]; Assay Number 2, serum human 3960): 522 OD multiplied by 1000
OD, bound IgE ([2]; Assay Number 2, serum human 3961): 169 OD multiplied by 1000
OD, bound IgE ([2]; Assay Number 2, serum human 3987): 846 OD multiplied by 1000
OD, bound IgE ([2]; Assay Number 2, serum human 4289): 173 OD multiplied by 1000
OD, bound IgE ([2]; Assay Number 2, serum human 4467): 353 OD multiplied by 1000
OD, bound IgE ([2]; Assay Number 2, serum human 5207): 2171 OD multiplied by 1000
OD, bound IgE ([2]; Assay Number 2, serum human pool): 1236 OD multiplied by 1000
OD, bound IgE ([2]; Table 3, sera 429, PDerf1303b preparation number A166-26, PDerf1223b preparation 1000-7): 152 OD multiplied by 1000
OD, bound IgE ([2]; Table 3, sera 1916, PDerf1303b preparation number A166-26, PDerf1223b preparation 1000-7): 14 OD multiplied by 1000
OD, bound IgE ([2]; Table 3, sera 3848, PDerf1303b preparation number A166-26, PDerf1223b preparation 1000-7): 1033 OD multiplied by 1000
OD, bound IgE ([2]; Table 3, sera 3958, PDerf1303b preparation number A166-26, PDerf1223b preparation 1000-7): 1067 OD multiplied by 1000
OD, bound IgE ([2]; Table 3, sera 3960, PDerf1303b preparation number A166-26, PDerf1223b preparation 1000-7): 738 OD multiplied by 1000
OD, bound IgE ([2]; Table 3, sera 3961, PDerf1303b preparation number A166-26, PDerf1223b preparation 1000-7): 221 OD multiplied by 1000
OD, bound IgE ([2]; Table 3, sera 3987, PDerf1303b preparation number A166-26, PDerf1223b preparation 1000-7): 865 OD multiplied by 1000
OD, bound IgE ([2]; Table 3, sera 4467, PDerf1303b preparation number A166-26, PDerf1223b preparation 1000-7): 489 OD multiplied by 1000
OD, bound IgE ([2]; Table 3, sera 5207, PDerf1303b preparation number A166-26, PDerf1223b preparation 1000-7): 1836 OD multiplied by 1000
OD, bound IgE ([2]; Table 3, sera human pool, PDerf1303b preparation number A166-26, PDerf1223b preparation 1000-7): 1114 OD multiplied by 1000
OD, bound IgE ([2]; Table 6, pool of sera from 16 mite-allergic human patients, 6.2 ng protein per well): 17 OD
OD, bound IgE ([2]; Table 6, pool of sera from 16 mite-allergic human patients, 12.5 ng protein per well): 116 OD
OD, bound IgE ([2]; Table 6, pool of sera from 16 mite-allergic human patients, 25 ng protein per well): 215 OD
OD, bound IgE ([2]; Table 6, pool of sera from 16 mite-allergic human patients, 50 ng protein per well): 488 OD
OD, bound IgE ([2]; Table 6, pool of sera from 16 mite-allergic human patients, 100 ng protein per well): 581 OD
OD, bound IgE ([2]; Table 6, pool of sera from 16 mite-allergic human patients, 200 ng protein per well): 584 OD
OD, Monoclonal Capture ELISA ([3]; 0.39 ng protein per well): 1480 OD
OD, Monoclonal Capture ELISA ([3]; 0.78 ng protein per well): 2186 OD
OD, Monoclonal Capture ELISA ([3]; 1.55 ng protein per well): 2447 OD
OD, Monoclonal Capture ELISA ([3]; 3.1 ng protein per well): 2597 OD
OD, Monoclonal Capture ELISA ([3]; 6.25 ng protein per well): 2620 OD
OD, Monoclonal Capture ELISA ([3]; 12.5 ng protein per well): 2483 OD
OD, Monoclonal Capture ELISA ([3]; 25 ng protein per well): 2249 OD
